What was measured:
MNK1a (MKNK1 isoform a) [1] = target: T1, MNK1a (MKNK1 isoform a) (UniProt Q9BUB5-2 Q9BUB5-2:1-424); test: recognised both isoforms in a similar manner; data not shown; conditions: tags: GST fusion; label: biotin; G4 predicted
MNK1b (MKNK1 isoform b) [2] = target: T2, MNK1b (MKNK1 isoform b) (UniProt Q9BUB5-3 Q9BUB5-3:1-347); test: as above; conditions: tags: GST fusion; label: biotin; G4 predicted
MNK1a (MKNK1 isoform a) [3] = target: T1, MNK1a (MKNK1 isoform a); test: ELONA; BSA-free aptamer buffer, 37 C; also detected in apta-western; conditions: tags: GST fusion; label: biotin; G4 (parallel, five-tiered from 3- and 2-tier quadruplexes)
Method: (§1) To determine the binding of the aptamers to MNK1a or MNK1b, 200 ng of protein/well diluted in a coating solution (KPL, USA) in a final volume of 100 μL/well were added to a Maxisorp Nunc 96-well ELISA plate (ThermoFisher Scientific, USA). The plate was incubated overnight at 4° C. under stirring. Aptamers were then added at the corresponding concentration according to the assay, in a final volume of 100 μL/well of BSA-free aptamer buffer for 1 hour at 37° C. under stirring. All the aptamers used were labeled with biotin and had been previously denatured at 90° C. for 10 minutes and then kept at 4° C. for 10 minutes in the BSA-free aptamer buffer. To detect the binding of the aptamer to the protein, 100 μL/well of streptavidin-peroxidase (GE Healthcare, United Kingdom) diluted 1/1000 in the aptamer buffer at 37° C. for 1 hour under stirring were added. To develop the plate, 100 μL/well of ABTS solution (Roche, Switzerland) were added, and it was incubated in darkness at room temperature, with measurements being taken every 10 minutes at a wavelength of 405 nm in an Infinite F200 spectrophotometer (TECAN, Switzerland).
(§2) To analyze the affinity of the new aptamer apMNKQ2, ELONA assays were carried out with the four MNK1 constructs.

MNK1b (MKNK1 isoform b) [4] = target: T2, MNK1b (MKNK1 isoform b); test: ELONA; BSA-free aptamer buffer, 37 C; four-fold higher affinity than MNK1a; preferentially recognised in native apta-western; conditions: tags: GST fusion; label: biotin; G4 (parallel, five-tiered from 3- and 2-tier quadruplexes)
Method: as §1, §2

T2 sequence (Q9BUB5 other isoform, or with tags, fused parts or gaps): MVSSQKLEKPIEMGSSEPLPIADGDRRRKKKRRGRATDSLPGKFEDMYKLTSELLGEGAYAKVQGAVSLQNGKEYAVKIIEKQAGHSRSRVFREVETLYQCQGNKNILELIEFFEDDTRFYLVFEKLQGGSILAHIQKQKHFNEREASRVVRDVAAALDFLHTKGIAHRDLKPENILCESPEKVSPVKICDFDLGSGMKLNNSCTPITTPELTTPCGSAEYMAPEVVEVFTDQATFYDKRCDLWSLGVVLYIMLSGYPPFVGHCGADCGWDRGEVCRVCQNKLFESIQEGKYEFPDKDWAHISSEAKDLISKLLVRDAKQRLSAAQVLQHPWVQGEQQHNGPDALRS
T1 sequence (Q9BUB5 other isoform, or with tags, fused parts or gaps): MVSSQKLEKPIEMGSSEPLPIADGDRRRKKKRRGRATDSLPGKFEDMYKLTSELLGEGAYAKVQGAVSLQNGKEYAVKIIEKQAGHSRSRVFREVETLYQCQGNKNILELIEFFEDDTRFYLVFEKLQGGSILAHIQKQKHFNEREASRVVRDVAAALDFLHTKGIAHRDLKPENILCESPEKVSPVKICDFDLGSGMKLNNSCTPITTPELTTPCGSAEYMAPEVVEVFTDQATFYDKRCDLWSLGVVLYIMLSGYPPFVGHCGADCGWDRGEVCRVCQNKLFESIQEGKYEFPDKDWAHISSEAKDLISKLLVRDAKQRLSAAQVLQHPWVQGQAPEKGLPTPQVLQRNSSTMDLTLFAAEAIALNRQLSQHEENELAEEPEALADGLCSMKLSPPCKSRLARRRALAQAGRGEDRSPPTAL

B1: apMNK2FT (structured_DNA)
DNA: TTTTTGGGGTGGGCGGGCGGGGGTGGGGGTGGTATGGCGCGTTGGCCC
binding result (MNK1a (MKNK1 isoform a) [1]): binds | binding result (MNK1b (MKNK1 isoform b) [2]): binds

B2: apMNKQ2 (structured_DNA)
DNA: TGGGGTGGGCGGGCGGGGGTGGGGGTGGT
Kd (MNK1a (MKNK1 isoform a) [3]): 66.1 nM | Kd (MNK1b (MKNK1 isoform b) [4]): 15.5 nM
